Data as given in US6828116.

Tested on: T1, Cy5-Ala-Ala-Phe-Phe-Ala-Ala-Lys-Compound III
T1 sequence: AAFFAAK

pepsin
Cy5 fluorescence intensity over time (FRET quench release on cleavage), with and without pepsin: Protease-catalysed hydrolysis of the substrate removes this quenching, restoring the Cy5 fluorescence.
